According to patent US20140377774:

Target: T1, wild-type yeast Ugp1
T1 chain: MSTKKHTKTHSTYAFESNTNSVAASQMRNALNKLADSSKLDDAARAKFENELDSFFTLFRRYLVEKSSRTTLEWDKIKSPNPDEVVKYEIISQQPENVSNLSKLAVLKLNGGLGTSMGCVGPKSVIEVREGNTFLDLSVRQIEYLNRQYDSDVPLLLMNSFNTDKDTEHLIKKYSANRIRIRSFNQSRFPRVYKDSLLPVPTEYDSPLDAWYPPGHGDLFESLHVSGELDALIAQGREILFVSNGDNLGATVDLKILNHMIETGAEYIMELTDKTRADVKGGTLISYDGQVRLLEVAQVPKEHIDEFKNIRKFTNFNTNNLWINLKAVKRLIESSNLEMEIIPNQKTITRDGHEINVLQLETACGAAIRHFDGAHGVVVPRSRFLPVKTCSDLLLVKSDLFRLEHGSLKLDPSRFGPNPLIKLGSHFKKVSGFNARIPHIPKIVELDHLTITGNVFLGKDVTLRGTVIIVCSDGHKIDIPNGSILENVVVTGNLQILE

B1: human PASK (protein)
chain: MEDGGLTAFEEDQRCLSQSLPLPVSAEGPAAQTTAEPSRSFSSAHRHLSRRNGLSRLCQSRTALSEDRWSSYCLSSLAAQNICTSKLHCPAAPEHTDPSEPRGSVSCCSLLRGLSSGWSSPLLPAPVCNPNKAIFTVDAKTTEILVANDKACGLLGYSSQDLIGQKLTQFFLRSDSDVVEALSEEHMEADGHAAVVFGTVVDIISRSGEKIPVSVWMKRMRQERRLCCVVVLEPVERVSTWVAFQSDGTVTSCDSLFAHLHGYVSGEDVAGQHITDLIPSVQLPPSGQHIPKNLKIQRSVGRARDGTTFPLSLKLKSQPSSEEATTGEAAPVSGYRASVWVFCTISGLITLLPDGTIHGINHSFALTLFGYGKTELLGKNITFLIPGFYSYMDLAYNSSLQLPDLASCLDVGNESGCGERTLDPWQGQDPAEGGQDPRINVVLAGGHVVPRDEIRKLMESQDIFTGTQTELIAGGQLLSCLSPQPAPGVDNVPEGSLPVHGEQALPKDQQITALGREEPVAIESPGQDLLGESRSEPVDVKPFASCEDSEAPVPAEDGGSDAGMCGLCQKAQLERMGVSGPSGSDLWAGAAVAKPQAKGQLAGGSLLMHCPCYGSEWGLWWRSQDLAPSPSGMAGLSFGTPTLDEPWLGVENDREELQTCLIKEQLSQLSLAGALDVPHAELVPTECQAVTAPVSSCDLGGRDLCGGCTGSSSACYALATDLPGGLEAVEAQEVDVNSFSWNLKELFFSDQTDQTSSNCSCATSELRETPSSLAVGSDPDVGSLQEQGSCVLDDRELLLLTGTCVDLGQGRRFRESCVGHDPTEPLEVCLVSSEHYAASDRESPGHVPSTLDAGPEDTCPSAEEPRLNVQVTSTPVIVMRGAAGLQREIQEGAYSGSCYHRDGLRLSIQFEVRRVELQGPTPLFCCWLVKDLLHSQRDSAARTRLFLASLPGSTHSTAAELTGPSLVEVLRARPWFEEPPKAVELEGLAACEGEYSQKYSTMSPLGSGAFGFVWTAVDKEKNKEVVVKFIKKEKVLEDCWIEDPKLGKVTLEIAILSRVEHANIIKVLDIFENQGFFQLVMEKHGSGLDLFAFIDRHPRLDEPLASYIFRQLVSAVGYLRLKDIIHRDIKDENIVIAEDFTIKLIDFGSAAYLERGKLFYTFCGTIEYCAPEVLMGNPYRGPELEMWSLGVTLYTLVFEENPFCELEETVEAAIHPPYLVSKELMSLVSGLLQPVPERRTTLEKLVTDPWVTQPVNLADYTWEEVFRVNKPESGVLSAASLEMGNRSLSDVAQAQELCGGPVPGEAPNGQGCLHPGDPRLLTS
Ugp1 phosphorylation (Western blot with phospho-specific Ugp1 antibody): transfected with human PASK and wild-type yeast Ugp1 (to promote phosphorylation) (lane 1) ... the phospho-Ugp1 band in lane 1
